IntAct's records for PubMed 16530190

B1: Actin-binding protein WASF1 (Rattus norvegicus (Rat)), Q5BJU7 (parent)
chain: MPLVKRNIDPRHLCHTALPRGIKNELECVTNISLANIIRQLSSLSKYAEDIFGELFNEAHSFSFRVNSLQERVDRLSVSVTQLDPKEEELSLQDITMRKAFRSSTIQDQQLFDRKTLPIPLQETYDVCEQPPPLNVLTPYRDDGKEGLKFYTNPSYFFDLWKEKMLQDTEDKRKEKRKQKQKNLDRPHEPEKVPRAPHDRRREWQKLAQGPELAEDDADLLHKHIEVANGPASHFETRPQTYVDHMDGSYSLSALPFSQMSELLSRAEERVLVRPHEPPPPPPMHAAGDARPTPTCVSSAAGLIENRPQSPAAGRTPVFVSPTPPPPPPPLPSALSTSSLRASMTSTPPPPVPPPPPPPAPALQAPAVPPPPAPLQIAPGVLHPAPPPIAPPLVQPSPPVARAAPVCETVPVHPLPQGEVQGLPPPPPPPPLPPPGIRPSSPVTVAALAHPPSGLHPTPSPAPGPHAPLMPPSPPSQVLPASEPKRHPSTLPVISDARSVLLEAIRKGIQLRKVEEQREQEAKHERIENDVATILSRRIAVEYSDSEDDSEFDEVDWLE

Variants of: B1
Settings: with gnai3_rat Gnai3, P08753
Sequence of gnai3_rat Gnai3, P08753 (P08753 whole entry): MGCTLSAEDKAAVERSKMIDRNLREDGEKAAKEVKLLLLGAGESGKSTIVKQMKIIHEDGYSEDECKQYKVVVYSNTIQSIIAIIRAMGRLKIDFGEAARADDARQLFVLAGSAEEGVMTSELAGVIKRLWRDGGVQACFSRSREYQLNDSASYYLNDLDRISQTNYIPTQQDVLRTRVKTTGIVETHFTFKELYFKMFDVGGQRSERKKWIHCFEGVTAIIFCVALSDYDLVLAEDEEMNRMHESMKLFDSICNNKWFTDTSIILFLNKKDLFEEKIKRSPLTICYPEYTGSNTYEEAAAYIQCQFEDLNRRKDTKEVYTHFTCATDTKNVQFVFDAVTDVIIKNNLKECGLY
In the case of MPLVKRNIDPRHLCHTALPRGIKNELECVTNISLANIIRQLSSLSKYAEDIFGELFNEAHSFSFRVNSLQERVDRLSVSVTQLDPKEEELSLQDITMRKAFRSSTIQDQQLFDRKTLPIPLQETYDVCEQPPPLNVLTPYRDDGKEGLKFYTNPSYFFDLWKEKMLQDTEDKRKEKRKQKQKNLDRPHEPEKVPRAPHDRRREWQKLAQGPELAEDDADLLHKHIEVANGPASHFETRPQTYVDHMDGSYSLSALPFSQMSELLSRAEERVLVRPHEPPPPPPMHAAGDARPTPTCVSSAAGLIENRPQSPAAGRTPVFVSPTPPPPPPPLPSALSTSSLRASMTSTPPPPVPPPPPPPAPALQAPAVPPPPAPLQIAPGVLHPAPPPIAPPLVQPSPPVARAAPVCETVPVHPLPQGEVQGLPPPPPPPPLPPPGIRPSSPVTVAALAHPPSGLHPTPSPAPGPHAPLMPPSPPSQVLPASEPKRHPSTLPVISDARSVLLEAIRKGIQLRKVEEAREQEAKHERIENDVATILSRRIAVEYSDSEDDSEFDEVDWLE [Q517A], the “effect of a mutation on the interaction” value is reported as “decreasing interaction”.

Variants of: B1
Settings: with actb_rat Actb
With MPLVKRNIDPRHLCHTALPRGIKNELECVTNISLANIIRQLSSLSKYAEDIFGELFNEAHSFSFRVNSLQERVDRLSVSVTQLDPKEEELSLQDITMRKAFRSSTIQDQQLFDRKTLPIPLQETYDVCEQPPPLNVLTPYRDDGKEGLKFYTNPSYFFDLWKEKMLQDTEDKRKEKRKQKQKNLDRPHEPEKVPRAPHDRRREWQKLAQGPELAEDDADLLHKHIEVANGPASHFETRPQTYVDHMDGSYSLSALPFSQMSELLSRAEERVLVRPHEPPPPPPMHAAGDARPTPTCVSSAAGLIENRPQSPAAGRTPVFVSPTPPPPPPPLPSALSTSSLRASMTSTPPPPVPPPPPPPAPALQAPAVPPPPAPLQIAPGVLHPAPPPIAPPLVQPSPPVARAAPVCETVPVHPLPQGEVQGLPPPPPPPPLPPPGIRPSSPVTVAALAHPPSGLHPTPSPAPGPHAPLMPPSPPSQVLPASEPKRHPSTLPVISDARSVLLEAIRKGIQLRKVEEAREQEAKHERIENDVATILSRRIAVEYSDSEDDSEFDEVDWLE [Q517A] the “effect of a mutation on the interaction” value was “decreasing interaction”.

Variants of: B1
Settings: with arpc2_human ARPC2, O15144
For MPLVKRNIDPRHLCHTALPRGIKNELECVTNISLANIIRQLSSLSKYAEDIFGELFNEAHSFSFRVNSLQERVDRLSVSVTQLDPKEEELSLQDITMRKAFRSSTIQDQQLFDRKTLPIPLQETYDVCEQPPPLNVLTPYRDDGKEGLKFYTNPSYFFDLWKEKMLQDTEDKRKEKRKQKQKNLDRPHEPEKVPRAPHDRRREWQKLAQGPELAEDDADLLHKHIEVANGPASHFETRPQTYVDHMDGSYSLSALPFSQMSELLSRAEERVLVRPHEPPPPPPMHAAGDARPTPTCVSSAAGLIENRPQSPAAGRTPVFVSPTPPPPPPPLPSALSTSSLRASMTSTPPPPVPPPPPPPAPALQAPAVPPPPAPLQIAPGVLHPAPPPIAPPLVQPSPPVARAAPVCETVPVHPLPQGEVQGLPPPPPPPPLPPPGIRPSSPVTVAALAHPPSGLHPTPSPAPGPHAPLMPPSPPSQVLPASEPKRHPSTLPVISDARSVLLEAIRKGIQLRKVEEAREQEAKHERIENDVATILSRRIAVEYSDSEDDSEFDEVDWLE [Q517A], the “effect of a mutation on the interaction” value was “decreasing interaction”.
